# Measured values reported in patent US20190153059A1 (ADEPTHERA, published 2019).
# Read-outs that look alike come from different tables or passages of the source. * marks the point of attachment. Palmitoyl = CCCCCCCCCCCCCCCC(=O)*
# T1: type 1 angiotensin II receptor AGTR1 (UniProt P30556 1-359, limits assumed)
# T1 sequence (looked up): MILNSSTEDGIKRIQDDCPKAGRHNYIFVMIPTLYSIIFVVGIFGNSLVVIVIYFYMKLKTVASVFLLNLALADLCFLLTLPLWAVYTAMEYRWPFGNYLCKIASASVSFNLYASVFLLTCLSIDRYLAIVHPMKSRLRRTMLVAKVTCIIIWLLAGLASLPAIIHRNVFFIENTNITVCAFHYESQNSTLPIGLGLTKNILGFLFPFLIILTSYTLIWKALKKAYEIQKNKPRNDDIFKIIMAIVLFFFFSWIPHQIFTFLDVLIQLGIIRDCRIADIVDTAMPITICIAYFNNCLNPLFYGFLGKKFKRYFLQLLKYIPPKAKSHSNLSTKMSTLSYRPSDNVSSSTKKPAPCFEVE
# B1: NTSR1 agonist and CLR/RAMP antagonist MRL (SEQ ID NO: 224) (peptide)
# peptide: XLYENKPRRPYILKVQKLSAPVDPSSPHSY
# modifications: not fully specified; Pyr(glu)- at N-terminus; miniPEG between LYENKPRRPYIL and K(Pal); K(Pal); -NH2
# Experiments:
# Assay in all cases: cell-based or functional assay
# [1] = biological target: T2, CLR/RAMP2 receptor (UniProt Q16602 23-461; O60895 43-175, limits assumed)
# [2] = biological target: T3, CLR/RAMP1 receptor (UniProt Q16602 23-461; O60894 27-148, limits assumed)
# [3] = biological target: T2, CLR/RAMP2 receptor; remark: listed apart in the source
# [4] = biological target: neurotensin receptor 1 (NTSR1) (UniProt P30989 1-418, limits assumed)
# [5] = biological target: T3, CLR/RAMP1 receptor; remark: listed apart in the source
# [6] = biological target: T2, CLR/RAMP2 receptor; remark: listed apart in the source
# [7] = biological target: CLR/RAMP3 receptor (UniProt Q16602 23-461; O60896 24-148, limits assumed)
# [8] = biological target: T1, type 1 angiotensin II receptor AGTR1
# [9] = biological target: T1, type 1 angiotensin II receptor AGTR1; remark: listed apart in the source
# T2 sequence (Q16602 23-461 limits assumed, chain 1 of 2): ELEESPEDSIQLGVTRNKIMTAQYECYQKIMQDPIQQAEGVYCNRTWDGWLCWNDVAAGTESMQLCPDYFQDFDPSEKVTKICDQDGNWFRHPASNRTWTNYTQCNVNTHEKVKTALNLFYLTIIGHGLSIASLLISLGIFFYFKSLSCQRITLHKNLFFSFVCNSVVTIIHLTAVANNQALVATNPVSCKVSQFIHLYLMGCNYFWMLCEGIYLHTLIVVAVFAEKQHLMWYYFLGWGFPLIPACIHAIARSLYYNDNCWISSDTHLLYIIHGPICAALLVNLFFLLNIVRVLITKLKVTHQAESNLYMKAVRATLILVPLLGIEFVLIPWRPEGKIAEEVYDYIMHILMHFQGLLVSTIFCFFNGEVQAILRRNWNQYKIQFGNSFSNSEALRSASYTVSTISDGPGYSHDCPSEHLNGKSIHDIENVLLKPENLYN
# T2 sequence (O60895 43-175 limits assumed, chain 2 of 2): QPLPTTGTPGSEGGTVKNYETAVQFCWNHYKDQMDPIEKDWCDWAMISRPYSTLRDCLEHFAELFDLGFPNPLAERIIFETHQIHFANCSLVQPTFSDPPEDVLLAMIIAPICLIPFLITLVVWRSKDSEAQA
# CLR/RAMP3 receptor, sequence (Q16602 23-461 limits assumed, chain 1 of 2): as the sequence (Q16602 23-461 limits assumed, chain 1 of 2) above
# CLR/RAMP3 receptor, sequence (O60896 24-148 limits assumed, chain 2 of 2): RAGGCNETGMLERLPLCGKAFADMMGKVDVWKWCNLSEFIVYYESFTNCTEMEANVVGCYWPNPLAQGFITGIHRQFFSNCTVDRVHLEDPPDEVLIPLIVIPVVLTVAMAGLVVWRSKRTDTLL
# T3 sequence (Q16602 23-461 limits assumed, chain 1 of 2): as the sequence (Q16602 23-461 limits assumed, chain 1 of 2) above
# T3 sequence (O60894 27-148 limits assumed, chain 2 of 2): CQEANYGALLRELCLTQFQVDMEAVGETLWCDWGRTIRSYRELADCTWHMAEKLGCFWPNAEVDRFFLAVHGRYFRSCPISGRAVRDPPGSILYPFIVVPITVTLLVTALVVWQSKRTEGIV
# neurotensin receptor 1 (NTSR1), sequence (P30989 whole entry): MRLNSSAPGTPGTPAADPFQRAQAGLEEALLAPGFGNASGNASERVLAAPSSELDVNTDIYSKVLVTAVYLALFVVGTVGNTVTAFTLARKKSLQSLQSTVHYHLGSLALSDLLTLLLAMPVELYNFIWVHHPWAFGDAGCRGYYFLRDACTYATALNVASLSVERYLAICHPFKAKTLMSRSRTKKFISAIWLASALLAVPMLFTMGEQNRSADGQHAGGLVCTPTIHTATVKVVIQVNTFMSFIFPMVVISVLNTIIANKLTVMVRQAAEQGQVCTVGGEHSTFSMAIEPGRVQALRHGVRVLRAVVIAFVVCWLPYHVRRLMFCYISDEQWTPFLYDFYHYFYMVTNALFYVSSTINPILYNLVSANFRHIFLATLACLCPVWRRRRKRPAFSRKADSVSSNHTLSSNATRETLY
molecule,measurement,setting,value
Wild type ADM positive (human ADM positive control) (from UniProt P35318 95-146) (peptide),CLR/RAMP2 Max Activity (% of positive controls),[1],100
B1,CLR/RAMP1 IC50,[2],< 0.5 nM
same,CLR/RAMP1 Max Activity (antagonist),[2],99 % of positive controls
same,CLR/RAMP2 IC50,[3],1.5 nM
same,CLR/RAMP2 Max Activity (antagonist),[3],100 % of positive controls
same,NTSR1 EC50 (calcium flux assay),[4],26 nM
same,NTSR1 Max Activity,[4],57 % of positive controls
"miniPEG-KGCRFGTCTVQKLAHQIYQFTDKDKDNVAPRSKISPQGY-NH2 (ends and bridges not checked; also: K(PAL), position not given here) [SEQ ID NO: 69]",CLR/RAMP1 Max Activity,[5],70 % of positive control
same,CLR/RAMP2 EC50,[6],0.6 nM
same,CLR/RAMP3 EC50,[7],0.6 nM
"miniPEG-KGCRFGTCTVQKLAHQIYQFTDKDSAPVDPSSPHSY-NH2 (cysteine pairing not given here; also: K(PAL) present, lysine not given here) [SEQ ID NO: 48]",CLR/RAMP1 EC50,[5],0.3 nM
same,CLR/RAMP2 EC50,[6],0.2 nM
same,CLR/RAMP3 EC50,[7],0.07 nM
Palmitoyl-KGCRFGTCTVQKLAHQIYQFTDKDVAPRSKISPQGY-NH2 (ends and bridges not checked) [SEQ ID NO: 103],CLR/RAMP1 EC50,[5],4.5 nM
same,CLR/RAMP2 EC50,[6],0.7 nM
same,CLR/RAMP3 EC50,[7],0.3 nM
"miniPEG-KGCRFGTCTVQKLAHQIYQFTDKDKDNSAPVDPSSPHSY-NH2 (cysteine pairing not given here; also: K(PAL) present, lysine not given here) [SEQ ID NO: 28]",CLR/RAMP1 EC50,[5],0.3 nM
same,CLR/RAMP3 EC50,[7],0.06 nM
RVYVHPAKGCRFGTCTVQKLAHQIYQFTDKDVAPRSKISPQGY (Sar at N-terminus (Sar-RVYVHPA); miniPEG before K(PAL); K(PAL); -NH2) [AGTR1 antagonist/CLR/RAMP agonist MRL (SEQ ID NO: 234)],AGTR1 IC50 (calcium flux assay),[8],19.9 nM
same,CLR/RAMP1 EC50,[2],0.3 nM
same,CLR/RAMP1 Max Activity,[2],132 % of positive controls
same,CLR/RAMP2 EC50,[3],1 nM
same,CLR/RAMP2 Max Activity,[3],86 % of positive controls
same,AGTR1 IC50 (calcium flux assay),[9],20 nM
Palmitoyl-KGCRFGTCTVQKLAHQIYQFTDKDSAPVDPSSPHSY-NH2 (cysteine pairing not given here) [SEQ ID NO: 92],CLR/RAMP1 EC50,[5],0.4 nM
same,CLR/RAMP2 EC50,[6],0.3 nM
same,CLR/RAMP3 EC50,[7],0.2 nM
